Measured values: patent US20220119534A1 (DRAGONFLY THERAPEUTICS, published 2022)
Each block holds one binder with its values, some of them ahead of it.

What was measured:
[1] = target: T1, Human CLEC12A expressed on cells (Ba/F3-hCLEC12A, PL21, HL60) (human, UniProt Q5QGZ9 1-265); assay: cell-based or functional assay
T1 sequence: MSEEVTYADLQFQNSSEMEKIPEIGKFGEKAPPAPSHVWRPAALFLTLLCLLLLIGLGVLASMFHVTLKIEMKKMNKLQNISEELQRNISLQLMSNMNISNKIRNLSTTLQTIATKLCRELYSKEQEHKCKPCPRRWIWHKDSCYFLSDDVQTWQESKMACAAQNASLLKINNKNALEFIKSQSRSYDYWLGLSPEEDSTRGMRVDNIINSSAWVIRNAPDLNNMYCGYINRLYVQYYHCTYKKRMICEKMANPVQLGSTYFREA

[2] = target: T2, human CLEC12A expressed on cells (human, UniProt Q5QGZ9 1-265); assay: flow cytometry, HL60
T2 construct: Transduced isogenic cells or endogenous expression on AML cells; also called RMA-hCLEC12A; Ba/F3-hCLEC12A
T2 sequence: T1 sequence

[3] = target: T3, recombinant human CLEC12A-His (human, UniProt Q5QGZ9 65-265); assay: SPR screening, semi-purified
T3 construct: also called hCLEC12A-His; hCLEC12A
T3 sequence: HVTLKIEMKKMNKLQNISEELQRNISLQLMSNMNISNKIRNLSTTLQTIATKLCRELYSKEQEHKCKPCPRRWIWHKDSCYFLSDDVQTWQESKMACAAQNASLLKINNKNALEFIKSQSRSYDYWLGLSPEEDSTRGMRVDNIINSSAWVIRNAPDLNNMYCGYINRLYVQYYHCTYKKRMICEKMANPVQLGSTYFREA

[4] = target: T2, human CLEC12A expressed on cells; assay: flow cytometry, hCLEC12A+ Ba/F3

% Max, ADCP activity of M0 macrophages against PL21 cells [1]: 11% | EC50, ADCP activity of M0 macrophages against PL21 cells [1]: 0.05 nM
B1: AB0037 mAb (Humanized 1602 anti-CLEC12A mAb) (antibody, V domains shown)
VH: QLQLQESGPGLVKPSETLSLTCTVSGFSLTNYGLHWIRQPPGKGLEWIGVIWSGGKTDYNPSLKSRVTISKDTSKNQFSLKLSSVQAADTAVYYCAKYDYDDSLDYWGQGTLVTVSS
VL: DIQMTQSPSSLSASVGDRVTITCHASQNINFWLSWYQQKPGKAPKLLIYEASNLHTGVPSRFSGSGSGTRFTLTISSLQPEDIATYYCQQSHSYPLTFGGGTKLEIK

EC50 [2]: 0.7 nM | Max binding MFI [2]: 420 MFI | Kd [3]: 1.21 nM | koff [3]: 0.00127 s⁻¹ | kon [3]: 1.04e+06 M⁻¹ s⁻¹ | EC50 [4]: 1.3 nM | Max binding MFI [4]: 8760 MFI
B2: AB0189 (other)
chain: DIKMTQSPSSLSASVGDRVTITCKASQDIYNYLSWFQQKPGKAPKPLIYRANILVSGVPSRFSGSGSGQDYTLTISSLQPEDIATYYCLQFDAFPFTFGCGTKLEIKGGGGSGGGGSGGGGSGGGGSEVQLVESGGGVVQPGGSLRLSCAASGFTFNAFGMHWVRQAPGKCLEWVAFISSGSTSIYYANTVKGRFTISRDNSKNTLYLQMNSLRAEDTAVYYCARDGYPTGGAMDYWGQGTSVTVSSGSDKTHTCPPCPAPELLGGPSVFLFPPKPKDTLMISRTPEVTCVVVDVSHEDPEVKFNWYVDGVEVHNAKTKPREEQYNSTYRVVSVLTVLHQDWLNGKEYKCKVSNKALPAPIEKTISKAKGQPREPRVYTLPPCRDELTKNQVSLTCLVKGFYPSDIAVEWESNGQPENNYKTTPPVLVSDGSFTLYSKLTVDKSRWQQGNVFSCSVMHEALHNHYTQKSLSLSPG
heavy: EVQLVESGGGLVKPGGSLRLSCAASGFTFSSYSMNWVRQAPGKGLEWVSSISSSSSYIYYADSVKGRFTISRDNAKNSLYLQMNSLRAEDTAVYYCARGAPIGAAAGWFDPWGQGTLVTVSSASTKGPSVFPLAPSSKSTSGGTAALGCLVKDYFPEPVTVSWNSGALTSGVHTFPAVLQSSGLYSLSSVVTVPSSSLGTQTYICNVNHKPSNTKVDKKVEPKSCDKTHTCPPCPAPELLGGPSVFLFPPKPKDTLMISRTPEVTCVVVDVSHEDPEVKFNWYVDGVEVHNAKTKPREEQYNSTYRVVSVLTVLHQDWLNGKEYKCKVSNKALPAPIEKTISKAKGQPREPQVCTLPPSRDELTENQVSLTCLVKGFYPSDIAVEWESNGQPENNYKTTPPVLDSDGSFFLYSWLTVDKSRWQQGNVFSCSVMHEALHNHYTQKSLSLSPG
light: DIQMTQSPSSVSASVGDRVTITCRASQGISSWLAWYQQKPGKAPKLLIYAASSLQSGVPSRFSGSGSGTDFTLTISSLQPEDFATYYCQQGVSFPRTFGGGTKVEIKRTVAAPSVFIFPPSDEQLKSGTASVVCLLNNFYPREAKVQWKVDNALQSGNSQESVTEQDSKDSTYSLSSTLTLSKADYEKHKVYACEVTHQGLSSPVTKSFNRGEC
notes: As AB0185
